From the nanobody polyreactivity screen of Harvey et al. (2022)

Experiment: yeast display, Sf9 membrane polyspecificity reagent, FACS + sequencing; frameworks hold sequencing errors
Procedure, shortened: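 Nanobodies from a synthetic yeast display library (Saccharomyces cerevisiae BJ5465), induced 36–48 hours with galactose, were stained 1 hour at 4 °C with 10% biotinylated, detergent-solubilized Sf9 membrane reagent, enriched on streptavidin microbeads, then FACS-sorted. Anti-HA (expression) and streptavidin (reagent binding) fluorescence set low and high (top ~1%) gates. Polyreactivity labels come from the gate of origin. Genes were colony-PCR amplified, MiSeq 2 × 250 sequenced and filtered by CDR length.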

## QVQHVESGGGLVQAGGSLRLSCAASGSIFGRYAMGWYRQAPGKERELVAAIRTDGSTYYADSVKGRFTISRDNAKNTVYLQMNSLKPEDTAVYYCAAVSKFQFHYIQYADRQYGYWGQGTQVTVSS
  polyreactivity (PSR sort gate): low polyreactivity

## QVQHVESGGGLVQAGGSLRLSCAASGSIFGRYVMGRYRQAPGKESEFVAAISRSGGRTYYADSVKGRFTISRDNAKNTVYLQMNSLKPEDTAVYYCNAVGAAGPYDYWGQGTQVTVSS
  polyreactivity (PSR sort gate): high polyreactivity

## QVQHVESGGGLVQAGGSLRLSCAASGSIFITYAMGWYRQAPGKERELVAAIRDSGDRTYYADSVKGRFTISRDNAKNTVYLQMNSLKPEDTAVYYCNARWQEPQKYDYWGQGTQVTVSS
  polyreactivity (PSR sort gate): low polyreactivity

## QVQHVESGGGLVQAGGSLRLSCAASGSIFVWYAMGWYRQAHGKERELVAAINWSGGRTYYADSVKGRFTISRDNAKNTVYLQMNSLKPEDTAVYYCAAELRRSDTYNYWGQGTQVTVSS
  polyreactivity (PSR sort gate): high polyreactivity

## QVQHVESGGGLVQAGGSLRLSCAASGSIFYIYAMGWYRQAPGKERELVAAISGSGSTYYADSVKGRFTISRDNAKNTVYLQMNSLKPEDTAVYDCAVELWRFWGAYTYTYDYWGQGTLVTVSS
  polyreactivity (PSR sort gate): high polyreactivity

## QVQHVESGGGLVQAGGSLRLSCAASGSILGVNAMGWYRQAPGKERELVAAISRTGGTTYYADSVKGRFTISRDNAKNTVYLQMHSLKPEDTAVYYCAGDVVFTSVPTGYLGYEYWGQGTQVTVSS
  polyreactivity (PSR sort gate): high polyreactivity

## QVQHVESGGGLVQAGGSLRLSCAASGSTFAFYAMGWYRQAPGKERELVAAITWRVGSTYYADSVKGRFTISRDNAKNTVYLQMNSLKPEDTAVYYCAVDIPFYDSDYCGQGTQVTVSS
  polyreactivity (PSR sort gate): low polyreactivity

## QVQHVESGGGLVQAGGSLRLSCAASGSTFDRYAMAWYRQAPGKERELVAAISRSTGRTNYADSVKGRFTISRDNAKNTVYLQMNSLIPEDTAVYYCAAYRYLRYDYWGQGTQVTVSS
  polyreactivity (PSR sort gate): high polyreactivity

## QVQHVESGGGLVQAGGSLRLSCAASGSTFKFYTMGWYRQAPGKERELVAGSTRAGSTNYADSVKGRFTISRDNAKNTVYLQMNSLKPEDTAVYYCNAYIWIYGCDYWGQGTQVTVSS
  polyreactivity (PSR sort gate): high polyreactivity

## QVQHVESGGGLVQAGGSLRLSCAASGSTFLANTMGWYRQAHGKERELVAAITRRGGSTRYADSVKGRFTISRDNAKNTVYLQMNSLKPEDTAVYYCAAPWFRDTRGYSLYDYWGQGTQVTVSS
  polyreactivity (PSR sort gate): high polyreactivity

## QVQHVESGGGLVQAGGSLRLSCAASGSTFLYYAMGWSRQAPGKERELVARITTRVGRTYYADSVKGRFTISRDNAKNTVYLQMNSLKPEDTAVYYCAAYPDYSYYYWGQGTQVTVSS
  polyreactivity (PSR sort gate): high polyreactivity

## QVQHVESGGGLVQAGGSLRLSCAASGSTFRFYDMGWYRQSPGKERELVATISSSGGTTYYADSVKGRFTISRDNAKNTVYLQMNSLKPEDTAVYYCNKYYGGRYRQYAYGYWGQGTQVTVSS
  polyreactivity (PSR sort gate): high polyreactivity

## QVQHVESGGGLVQAGGSLRLSCAASGSTFRVNAMGWYRPAPGKERELVAGISKSGTSTYYADSVKGRFTISRDNAKNTVYLQMNSLKPEDTAVYYCIKGYYRHPDESDYWGQGTQVTVSS
  polyreactivity (PSR sort gate): high polyreactivity

## QVQHVESGGGLVQAGGSLRLSCAASGSTFYYYAMGWYRQARGKERELVATISRSTARTFYADSVKGRFTISRDNAKITVYLQMNSLKPEDTAVYYCAREYYYRRGFFLRGYWGQGTQVTVSS
  polyreactivity (PSR sort gate): high polyreactivity

## QVQHVESGGGLVQAGGSLRLSCAASGSTITANAMGWYRQAPGKERELVPAISDTTGNTYYADSVMGRFTISRDNANNTVYLQMNSLKPEDTAVYYCAADLTSYYGGDYWGQGTQVTVSS
  polyreactivity (PSR sort gate): low polyreactivity

## QVQHVESGGGLVQAGGSLRLSCAASGYIFKGNVMGWYRQAPGKERELVAAISRSGGRTYYADSVKGRFTISRDNAKNTVYLQLNSLKPDDTAVFYCFTKHRTKPTRPVDYWGQGTQVTVSS
  polyreactivity (PSR sort gate): high polyreactivity

## QVQHVESGGGLVQAGGSLRLSCAASGYIFPDYAMGWYRLAPGKEREMVAAITSSGGITYYADSVKGRFTISRDNAKNTVYLQMNCLKPEDSAVYYCAKGYPWRYSIMDYWGQGTQVTVSS
  polyreactivity (PSR sort gate): low polyreactivity

## QVQHVESGGGLVQAGGSLRLSCAASGYIFSRYMGWYRQAPGKERQLVAAITRGGVSTYYADSVKGRFTISRDNAKNTVYLQMNSLKPEDTAVYYCATGRPVYYVASYDYDYWGQGTQVTVSS
  polyreactivity (PSR sort gate): low polyreactivity

## QVQHVESGGGLVQAGGSLRLSCAASGYTFPLYAMGWYRQAPGKEREFVAAISKRSGTTYYADSVKGRFTISRDNAKNTVYLQMNSLKPEDTAVYYCNAGYSVYNQRFGYWGQGTQVTVSS
  polyreactivity (PSR sort gate): high polyreactivity

## QVQHVESGGGLVQAGGSLRLSCAASIRIFRYYAMGRSRQGPGKEREVVASSRSASSTYYADSVKGRFTISRDNAKNPVYLQMNSLKAEDTAVYYCNAVSPLSIWSSRDGWYGYWGQGTQVTVSS
  polyreactivity (PSR sort gate): high polyreactivity

## QVQHVESGGGLVQAGGSLRLSCAASMGWYRQAPGKERELVAAINSGGSTNYADSVKGRFTISRDNAKNTVYLQMNSLKPEDTAVYYCAKTFSNLPEYDYWGQGTQVTVSS
  polyreactivity (PSR sort gate): low polyreactivity

## QVQHVESGGGLVQAGGSLRLSCAPSGRIFRYNAMGWYRQAPGKERELVAVISTRGGSTFYADSVKGRFTISRDNAKNTVYFQMNSLKPEDTAVYSCAAYRRHPFGGGYWGQGTQVTVSS
  polyreactivity (PSR sort gate): high polyreactivity

## QVQHVESGGGLVQAGGSLRLSCPASGIIIYQYALGSYRQAPGKERELVAAISSGVNTYYADSVKGRFTISRDNAKNTVYLQMNSLKPEDTAVYYCAARLTFGYLRSKFYYWGQGTQVTVSS
  polyreactivity (PSR sort gate): high polyreactivity

## QVQHVESGGGLVQAGGSLRLSSAASGLTFYHYTMGWYRQAPGKERELVAAITKNGGSTYYADSVKGRFTISRDNAKNTVYLQMNSLKPEDTAVYYCNVGPRRVDRSRAASSDYDYWGQGTQVTVSS
  polyreactivity (PSR sort gate): high polyreactivity

## QVQHVESGGGLVQAGGSLRLSSAAYGFIFGYYTMGWYRQAPGKERELVAAITSGDSTNYADSVKGRFTISRDNAKNTVYLQMNSLKPEDTAVYYCNARGLFTWMDYWGQGTQVTVSS
  polyreactivity (PSR sort gate): low polyreactivity

## QVQHVESGGGLVQAGGSLSLSCAASARTFRRNVMGLYRQAPGKERELVAAISYGANTNYADSVKGRFTISRDNAKNTVYLQMNSLKPEDTAVYYCAAGEGWRSRTFDYWGQGTQVTVSS
  polyreactivity (PSR sort gate): low polyreactivity

## QVQHVESGGGLVQAGGSNRLSCAASAFIFRSNAMGWYRQAAGKEREFVPAISSRGGSTTYADSVKGRFTISRDNAKITVYLQMKSLKPEDTAVYYCARDCYYYPQYRKRYYYWGQGTQVSVSS
  polyreactivity (PSR sort gate): high polyreactivity

## QVQHVESGGGLVQAGRSLRLICAASGSIFDGNAMGWYRQAPGKERELVAAINWPGTRTYYADSVKGRFTISRDNAKNTVYLQMNSLKPEETAVYNCNKKWYPYLEHDYWGLGTQVTVSS
  polyreactivity (PSR sort gate): high polyreactivity

## QVQHVESGGGLVQSGGSLRLSCAASGSIFGKYSMGWYRQAPGKERELVAAISDSGSITYYADSVKGRLTISRDNAMYTFYLQMNSLKPEDTAVYYCAAEVNYYQRFKYEYWGQGTQVTVSS
  polyreactivity (PSR sort gate): high polyreactivity

## QVQHVESGGGVVQGGGSLRLSCAASLSIFYIYAMGWYRQAPGTERELVAAITRSGGSTNYADSVTGPFTFSRDNATNTVYLQMTSLQPEDTAVYYCAAAVGRPYTPTYDYWGQGTKVTVSS
  polyreactivity (PSR sort gate): low polyreactivity

## QVQHVESGGVLVQARGSLRLTCAASGSTFIRNAMGWYRQAPGKERELVAAISASGGRSYYADSVKGRFTFSRDNAKTSVYCQLNSLKSEDTAVYYFAARNARYVHTMVFWGQGTQVTVSS
  polyreactivity (PSR sort gate): high polyreactivity

## QVQHVESGRGLVPAGGSLRLSCAASGSTFNLNAMGWYRQAPGKERELVAAISWRGDSTSYADSVKGRFTISRDNAKNTVYLQMNSLKPEDTAVYFCATAHDSAFYRYWYVPSEYNYWGQGTQVTVSS
  polyreactivity (PSR sort gate): low polyreactivity

## QVQHVESGRGLVQAGGSLRLSCAASGSIFRWYTMGWYRQAPGKERELVAAITSGGTTKYADSVKGRFTISRDNAKNTVYLQMNSLKPEDTAVYYCARRHRYRYDWGQGTQVTVSS
  polyreactivity (PSR sort gate): high polyreactivity

## QVQHVESGRGLVQAGGSLRLSCAASGSIFTSNAMGWYRQAPGIERELVAAISIGGGTYYADSVKGRFTISRDNAKNTVYLQMNSLKPEDTAVYYCAARVGGRRVRFNYWGQGTQVTVSS
  polyreactivity (PSR sort gate): high polyreactivity

## QVQHVESGRGLVQAGGSLRLSCAASGSTFDYNALGWSRQAPGKERELVARISSSGGITDYADSVKGRFTISRDNAKNTVYLHMNSLKPDDTAVNYCARVGKSGAVTAETRRWYYYWGQGTQVTVSS
  polyreactivity (PSR sort gate): low polyreactivity

## QVQHVESGVGLVQAGGSLRLSCAASGRIFRWNAMGWYRQAPGKERELVAAISWNGGRTYYADSVKGRFTISRDNAKNTVYLQMNSLKPEDTAVYYCAAPHCVPDLHSGDYWGLGTQVTVSS
  polyreactivity (PSR sort gate): low polyreactivity

## QVQHVESGVGLVQAGGSLRLSCAASGRTFHSSTMGWYRLAAGKERELVAAISKSGGSTYYADSVKGRFTLSRDNAKNTVYLQMNSLKPEDTAVYYCAADPGSRVHPGVYYWGQGTQLTVSS
  polyreactivity (PSR sort gate): high polyreactivity

## QVQHVESGVGLVQPVGSLRLSCAASGSTIVSNAMGWERQAPGKERELVAAISTSGGTTDYPDSVKGRFTISRHNAKNTVYLQMNCLKPEDTAVYYCAARHYYVKHSYDYWGQGTQVTVSS
  polyreactivity (PSR sort gate): low polyreactivity

## QVQHVESLGGLVQAGGSLRLSCAASGIIFGYYAMGWYRQAPGKERELVAAISRRGGSTYYADSVKGRFTISRDNAKNTVYLQMNSLKPEDTAVYYCAAVELRLSTPDMESWGQGTQVTVSS
  polyreactivity (PSR sort gate): high polyreactivity

## QVQHVESRGGLVQAGGSLRLSCAASGFTFYLNAKGWYRQAPGKVRELVAAISYSDGSTYYADSVKGRFTISRDNAKNTVYLQMNSLIPEDTAVYYCAADTTDPGGAYQLMEYWGQGTQVTVSS
  polyreactivity (PSR sort gate): high polyreactivity

## QVQHVESRGGLVQAGGSLRLSCAASGIIFRYAMGWYRQAPGKERELVAAIRKSDGSTYYADSVKGRFTISRDNAKNTFYLQMNSLKPEDTAVYYCATDIGYGNRKGFYYWGQGSQVTVSS
  polyreactivity (PSR sort gate): high polyreactivity

## QVQHVESVGGLVQAGGSLRLICADSGFTFWPYAMGWYRPAPGTERELVAAITSSGSTNYADSVKGRFTISRDNAKNTVYLQMNSMKQEDTAVYYCAADHRPWRFQSSVQLYYYWGQGTQVTVSS
  polyreactivity (PSR sort gate): low polyreactivity

## QVQHVESVGGLVQAGGSLRLSCAASGSIFGRYAMGWYRHAPGKERELVAAISWSGGSTYYADSVKGRFTISRDNAKNTVYLQMNSLKPEDTAVYYCAATTYSGFDYWGQGTQVTVSS
  polyreactivity (PSR sort gate): high polyreactivity
